Results on 2 molecules are retold here after paper PMC2797707 (Journal of the American Chemical Society, 2009).

Data set [1] relates to CsoR H61A (Mycobacterium tuberculosis). Nature of the data set: fluorescence anisotropy. As to conditions: pH 7.0, 0.2 M NaCl, 2 mM DTT, 25 °C (buffer not stated in the material).
Data set [2] concerns the molecule itself.

Where only a bound is given, the exact number is not on record here.

Consider cso operator DNA, for which the Ka (M-1 (A2 (so in the source); ≤)) in data set [1] was less than 1e+10.

B1: H61A Mycobacterium tuberculosis CsoR (natural protein)
chain: MSKELTAKKRAALNRLKTVRGHLDGIVRMLESDAYCVDVMKQISAVQSSLERANRVMLHNALETCFSTAVLDGHGQAAIEELIDAVKFTPALTGPHARLGGAAVGESATEEPMPDASNM
The stoichiometry N is the number of molecules, sites or subunits per partner or assembly. Consider B1, for which, in data set [2], the “stoichiometry N” value came to 4.
